Results taken from the supplement of paper PMC10567573.

B1: PLD5 (parent)
chain: WIVDKQHVYIGSAGLDWQSLGQMK

Variants of: B1
Assay: protein stability index of a GFP-peptide fusion (GPS, HEK-293T) (PSI 1-6); higher = more stable
Settings: c terminus: a fixed tail appended
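Further: lentivirally expressed fusions sorted by FACS into six bins by GFP to DsRed ratio, PSI derived from sequencing read proportions per bin multiplied by bin number.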

Going from WIVDKWHVYIGSAGLDWQSLGQMK [Q6W] to WIVDKNHVYIGSAGLDWQSLGQMK [Q6N], the protein stability index falls from 4.19 to 1.58.

Compared with WIVDKFHVYIGSAGLDWQSLGQMK [Q6F], WIVDKSHVYIGSAGLDWQSLGQMK [Q6S] is lower in protein stability index: 2.05 for the first, 1.37 for the second.

Compared with WIVDKDHVYIGSAGLDWQSLGQMK [Q6D], WIVDKHHVYIGSAGLDWQSLGQMK [Q6H] is higher in protein stability index: 1.4 for the first, 2.1 for the second.

First: WIVDKMHVYIGSAGLDWQSLGQMK [Q6M]
Second: WIVDKAHVYIGSAGLDWQSLGQMK [Q6A]
The protein stability index of the first is higher: 2.63 for the first, 1.51 for the second.

First: WIVDKLHVYIGSAGLDWQSLGQMK [Q6L]
Second: WIVDKCHVYIGSAGLDWQSLGQMK [Q6C]
The protein stability index of the first is higher: 2.87 for the first, 1 for the second.

Going from WIVDKQSVYIGSAGLDWQSLGQMK [H7S] to WIVDKQAVYIGSAGLDWQSLGQMK [H7A], the protein stability index rises from 2.26 to 2.63.

Going from WIVDKQDVYIGSAGLDWQSLGQMK [H7D] to WIVDKQKVYIGSAGLDWQSLGQMK [H7K], the protein stability index falls from 1.98 to 1.54.

Going from WIVDKQEVYIGSAGLDWQSLGQMK [H7E] to WIVDKQNVYIGSAGLDWQSLGQMK [H7N], the protein stability index rises from 1.42 to 1.48.

Compared with WIVDKQGVYIGSAGLDWQSLGQMK [H7G], WIVDKQYVYIGSAGLDWQSLGQMK [H7Y] is higher in protein stability index: 2.17 for the first, 2.6 for the second.

Going from WIVDKQRVYIGSAGLDWQSLGQMK [H7R] to WIVDKQTVYIGSAGLDWQSLGQMK [H7T], the protein stability index falls from 2.36 to 2.26.

First: WIVDKQWVYIGSAGLDWQSLGQMK [H7W]
Second: WIVDKQMVYIGSAGLDWQSLGQMK [H7M]
The protein stability index of the first is higher: 3.59 for the first, 2.6 for the second.

Compared with WIVDKQPVYIGSAGLDWQSLGQMK [H7P], WIVDKQCVYIGSAGLDWQSLGQMK [H7C] is lower in protein stability index: 2.27 for the first, 1.37 for the second.

Compared with WIVDKQQVYIGSAGLDWQSLGQMK [H7Q], WIVDEQHVYIGSAGLDWQSLGQMK [K5E] is higher in protein stability index: 1.96 for the first, 2.42 for the second.

Compared with WIVDRQHVYIGSAGLDWQSLGQMK [K5R], WIVDYQHVYIGSAGLDWQSLGQMK [K5Y] is lower in protein stability index: 1.94 for the first, 1.61 for the second.

Compared with WIVDQQHVYIGSAGLDWQSLGQMK [K5Q], WIVDWQHVYIGSAGLDWQSLGQMK [K5W] is higher in protein stability index: 1.74 for the first, 2.34 for the second.

Compared with WIVDPQHVYIGSAGLDWQSLGQMK [K5P], WIVDSQHVYIGSAGLDWQSLGQMK [K5S] is lower in protein stability index: 1.74 for the first, 1.07 for the second.

Compared with WIVDIQHVYIGSAGLDWQSLGQMK [K5I], WIVDHQHVYIGSAGLDWQSLGQMK [K5H] is lower in protein stability index: 3.22 for the first, 1.55 for the second.

First: WIVDNQHVYIGSAGLDWQSLGQMK [K5N]
Second: WIVDFQHVYIGSAGLDWQSLGQMK [K5F]
The protein stability index of the first is lower: 2.12 for the first, 4.11 for the second.

Going from WIVDTQHVYIGSAGLDWQSLGQMK [K5T] to WIVDGQHVYIGSAGLDWQSLGQMK [K5G], the protein stability index falls from 2.98 to 1.8.

Going from WIVDKQHVYIQSAGLDWQSLGQMK [G11Q] to WIVDKQHVYIRSAGLDWQSLGQMK [G11R], the protein stability index rises from 1.53 to 2.02.

First: WIVDKQHVYITSAGLDWQSLGQMK [G11T]
Second: WIVDKQHVYIHSAGLDWQSLGQMK [G11H]
The protein stability index of the first is lower: 1.71 for the first, 1.92 for the second.

Going from WIVDKQHVYIKSAGLDWQSLGQMK [G11K] to WIVDKQHVYISSAGLDWQSLGQMK [G11S], the protein stability index rises from 1.26 to 2.22.

First: WIVDKQHVYIVSAGLDWQSLGQMK [G11V]
Second: WIVDKQHVYILSAGLDWQSLGQMK [G11L]
The protein stability index of the first is lower: 2.02 for the first, 2.88 for the second.

First: WIVDKQHVYICSAGLDWQSLGQMK [G11C]
Second: WIVDKQHVYIFSAGLDWQSLGQMK [G11F]
The protein stability index of the first is lower: 2.07 for the first, 2.11 for the second.

Going from WIVDKQHVYIASAGLDWQSLGQMK [G11A] to WIVDKQHVYIESAGLDWQSLGQMK [G11E], the protein stability index rises from 1.69 to 2.82.

Going from WIVDKQHVYIISAGLDWQSLGQMK [G11I] to WIVDKQHVYIPSAGLDWQSLGQMK [G11P], the protein stability index falls from 2.71 to 2.12.

Compared with WIVDKQHVYIWSAGLDWQSLGQMK [G11W], WIVDKQHVYIMSAGLDWQSLGQMK [G11M] is lower in protein stability index: 2.27 for the first, 2.25 for the second.

Compared with WIVDKQHVYIYSAGLDWQSLGQMK [G11Y], WIVDKQHVYIDSAGLDWQSLGQMK [G11D] is lower in protein stability index: 3.22 for the first, 1.46 for the second.

Compared with WIVDKQHVYINSAGLDWQSLGQMK [G11N], WIVDKQHQYIGSAGLDWQSLGQMK [V8Q] is lower in protein stability index: 2.32 for the first, 2.11 for the second.

Compared with WIVDKQHIYIGSAGLDWQSLGQMK [V8I], WIVDKQHAYIGSAGLDWQSLGQMK [V8A] is lower in protein stability index: 2.31 for the first, 1.66 for the second.

Going from WIVDKQHKYIGSAGLDWQSLGQMK [V8K] to WIVDKQHLYIGSAGLDWQSLGQMK [V8L], the protein stability index rises from 1.9 to 1.93.

WIVDKQHEYIGSAGLDWQSLGQMK [V8E] and WIVDKQHNYIGSAGLDWQSLGQMK [V8N] are the same in protein stability index: 2.01 for the first, 2.01 for the second.

Compared with WIVDKQHFYIGSAGLDWQSLGQMK [V8F], WIVDKQHMYIGSAGLDWQSLGQMK [V8M] is higher in protein stability index: 1.92 for the first, 2.45 for the second.

First: WIVDKQHGYIGSAGLDWQSLGQMK [V8G]
Second: WIVDKQHRYIGSAGLDWQSLGQMK [V8R]
The protein stability index of the first is lower: 1.35 for the first, 4.04 for the second.

Compared with WIVDKQHSYIGSAGLDWQSLGQMK [V8S], WIVDKQHCYIGSAGLDWQSLGQMK [V8C] is lower in protein stability index: 1.69 for the first, 1.58 for the second.

Going from WIVDKQHPYIGSAGLDWQSLGQMK [V8P] to WIVDKQHWYIGSAGLDWQSLGQMK [V8W], the protein stability index rises from 2.06 to 2.43.

Going from WIVDKQHTYIGSAGLDWQSLGQMK [V8T] to WIVDKQHYYIGSAGLDWQSLGQMK [V8Y], the protein stability index falls from 1.81 to 1.25.

First: WIVDKQHHYIGSAGLDWQSLGQMK [V8H]
Second: WIVDKQHDYIGSAGLDWQSLGQMK [V8D]
The protein stability index of the first is higher: 1.54 for the first, 1.5 for the second.

Going from WIVDKQHVYIGLAGLDWQSLGQMK [S12L] to WIVDKQHVYIGPAGLDWQSLGQMK [S12P], the protein stability index falls from 2.45 to 1.89.

First: WIVDKQHVYIGTAGLDWQSLGQMK [S12T]
Second: WIVDKQHVYIGVAGLDWQSLGQMK [S12V]
The protein stability index of the first is lower: 1.18 for the first, 2.35 for the second.

Compared with WIVDKQHVYIGWAGLDWQSLGQMK [S12W], WIVDKQHVYIGYAGLDWQSLGQMK [S12Y] is lower in protein stability index: 1.92 for the first, 1.73 for the second.

First: WIVDKQHVYIGDAGLDWQSLGQMK [S12D]
Second: WIVDKQHVYIGFAGLDWQSLGQMK [S12F]
The protein stability index of the first is lower: 1.57 for the first, 3.2 for the second.

First: WIVDKQHVYIGKAGLDWQSLGQMK [S12K]
Second: WIVDKQHVYIGRAGLDWQSLGQMK [S12R]
The protein stability index of the first is higher: 2.07 for the first, 1.6 for the second.

Going from WIVDKQHVYIGQAGLDWQSLGQMK [S12Q] to WIVDKQHVYIGHAGLDWQSLGQMK [S12H], the protein stability index rises from 1.6 to 1.62.

Compared with WIVDKQHVYIGAAGLDWQSLGQMK [S12A], WIVDKQHVYIGEAGLDWQSLGQMK [S12E] is lower in protein stability index: 1.65 for the first, 1.52 for the second.

First: WIVDKQHVYIGNAGLDWQSLGQMK [S12N]
Second: WIVDKQHVYIGIAGLDWQSLGQMK [S12I]
The protein stability index of the first is lower: 1.92 for the first, 3.48 for the second.

Going from WIVDKQHVYIGGAGLDWQSLGQMK [S12G] to WIVDKQHVYIGMAGLDWQSLGQMK [S12M], the protein stability index falls from 1.72 to 1.31.
